# Publication PMC10465345, “Development of a growth-coupled selection platform for directed evolution of heme biosynthetic enzymes in Corynebacterium glutamicum” (Frontiers in Bioengineering and Biotechnology, 2023)
# Where a chain is given by its changes, count along the chain named. Numbers in names are those of the source.
# B1: CpfC (coproporphyrin ferrochelatase) (Corynebacterium glutamicum ATCC 13032) (protein)
# chain: MNERTSDAFDALLVLSFGGPEGHEEVRPFLENVTHGRGIPPERLDEVAVHYHHFGGISPINALNREIIANVEKELASRDHKLPVYFGNRNWKPFDNEAAEQMADDGVKNALVLATSAWGGYSGCRQYQEDIQGMIKHLESQGQSITFTKLRQFYDHPRFVSTMAQLVQDSYAKLPDELRDEARLVFTAHSIPLTADNAAGTPEDGSLYSTQVKEASALIAEAVGVSDFDVVWQSRSGSPHTPWLEPDIVDHAVELNEKGQKALVVCPVGFISDHMEVIWDLDSELMEEAEKRNMVVERVATVGPTDEFAALVVDLIEEAELKRVIERLGKLPARGSSVNGAPCGDGCCGTAKHKTARVNPNARSAAPAAN
# notes: heterologously expressed in E. coli BL21, purified
# B2: CpfC (coproporphyrin ferrochelatase) (Corynebacterium glutamicum ATCC 13032; E181G) (protein)
# chain: B1 chain with E181G
# notes: as for B1
# B3: CpfC (coproporphyrin ferrochelatase) (Corynebacterium glutamicum ATCC 13032; E100D/E31V) (protein)
# chain: B1 chain with E31V, E100D
# notes: as for B1
# B4: CpfC (coproporphyrin ferrochelatase) (Corynebacterium glutamicum ATCC 13032; T194S) (protein)
# chain: B1 chain with T194S
# notes: as for B1
# B5: CpfC (coproporphyrin ferrochelatase) (Corynebacterium glutamicum ATCC 13032; E100D) (protein)
# chain: B1 chain with E100D
# notes: as for B1
# B6: CpfC (coproporphyrin ferrochelatase) (Corynebacterium glutamicum ATCC 13032; E31V) (protein)
# chain: B1 chain with E31V
# notes: as for B1
# Substrate: CC1=C(CCC(=O)O)c2cc3nc(cc4[nH]c(cc5[nH]c(cc1n2)c(C)c5CCC(=O)O)c(CCC(=O)O)c4C)C(CCC(=O)O)=C3C
# Test: purified protein
# Assay type: biochemical, Corynebacterium glutamicum
# Conditions: ferrous ammonium sulfate 100 uM, Tris-HCl pH 8.0, 3.3% Tween 20, 5 mM glutathione, 30 °C
Protein,Km,kcat,kcat/Km
B1,15.17 ± 1.84 × 10^-3 mM,0.26 ± 0.09 s⁻¹,17430 ± 110 M⁻¹ s⁻¹
B2,10.04 ± 1.52 × 10^-3 mM,0.3 ± 0.04 s⁻¹,30600 ± 4310 M⁻¹ s⁻¹
B3,9.78 ± 0.82 × 10^-3 mM,0.36 ± 0.04 s⁻¹,37000 ± 4520 M⁻¹ s⁻¹
B4,11.63 ± 1.50 × 10^-3 mM,0.32 ± 0.06 s⁻¹,27300 ± 4880 M⁻¹ s⁻¹
B5,9.40 ± 1.50 × 10^-3 mM,0.36 ± 0.06 s⁻¹,38100 ± 650 M⁻¹ s⁻¹
B6,8.26 ± 0.52 × 10^-3 mM,0.43 ± 0.01 s⁻¹,52900 ± 1400 M⁻¹ s⁻¹
